The record followed here is doi:10.1101/2023.06.15.545135, “Structure of mechanically activated ion channel OSCA2.3 reveals mobile elements in the transmembrane domain” (bioRxiv, 2023).

In series [1] the target is Arabidopsis thaliana OSCA1.2 (Arabidopsis thaliana) (UniProt Q5XEZ5). Kind of series: cryo-EM structure; OSCA1.2 reconstituted in peptidiscs, ~8 mg/mL; 2.8 Å map, C2 symmetry imposed.
Series [2] deals with the molecule itself. The series is described as above.
Series [3] concerns the molecule itself. Kind of series: cryo-EM structure; OSCA2.3 reconstituted in peptidiscs, ~3.6 mg/mL, TBS with 2 mM DTT; 2.7 Å map, C2 symmetry imposed.

As usually defined, the stoichiometry N is a count of units in the complex or per binding partner. NSPr peptide (peptidisc peptide): the stoichiometry N in series [1] was 4 per protomer.

B1: Arabidopsis thaliana OSCA1.2 (natural protein)
chain: MATLQDIGVSAGINILSAFVFFIIFAVLRLQPFNDRVYFSKWYLKGLRSSPARGGAFAQRFVNLDFRSYMKFLNWMPEALKMPEPELIDHAGLDSVVYLRIYWLGLKIFTPIAVLAWAVLVPVNWTNNTLEMAKQLRNVTSSDIDKLSVSNIPEYSMRFWTHIVMAYAFTIWTCYVLMKEYETIANMRLQFVASEARRPDQFTVLVRNVPPDADESVSELVEHFFLVNHPDHYLTHQVVCNANKLADLVKKKKKLQNWLDYYQLKYARNNSQRIMVKLGFLGLWGQKVDAIEHYIAEIDKISKEISKEREEVVNDPKAIMPAAFVSFKTRWAAAVCAQTQQTRNPTQWLTEWAPEPRDVFWSNLAIPYVSLTVRRLIMHVAFFFLTFFFIVPIAFVQSLATIEGIVKAAPFLKFIVDDKFMKSVIQGFLPGIALKLFLAFLPSILMIMSKFEGFTSISSLERRAAFRYYIFNLVNVFLASVIAGAAFEQLNSFLNQSANQIPKTIGVAIPMKATFFITYIMVDGWAGVAGEILMLKPLIMFHLKNAFLVKTDKDREEAMDPGSIGFNTGEPRIQLYFLLGLVYAPVTPMLLPFILVFFALAYIVYRHQIINVYNQEYESAAAFWPDVHGRVIAALVISQLLLMGLLGTKHAALAAPFLIALPVLTIGFHHFCKGRYEPAFIRYPLQEAMMKDTLETAREPNLNLKGYLQNAYVHPVFKGDEDDYDIDDKLGKFEDEAIIVPTKRQSRRNTPAPSIISGDDSPSLPFSGKLV
notes: OSCA1.2 of Arabidopsis thaliana, UniProt Q5XEZ5; Final model holds residues 2-50, 71-121, 157-266, 290-487, 505-648, 654-718; also called AtOSCA1.2
Take B1: the binding result in series [2] is “binds”.

B2: Arabidopsis thaliana OSCA2.3 (natural protein, UniProt Q8GUH7 1-703, looked up)
chain: MLLSALLTSVGINLGLCFLFFTLYSILRKQPSNVTVYGPRLVKKDGKSQQSNEFNLERLLPTAGWVKRALEPTNDEILSNLGLDALVFIRVFVFSIRVFSFASVVGIFILLPVNYMGTEFEEFFDLPKKSMDNFSISNVNDGSNKLWIHFCAIYIFTAVVCSLLYYEHKYILTKRIAHLYSSKPQPQEFTVLVSGVPLVSGNSISETVENFFREYHSSSYLSHIVVHRTDKLKVLMNDAEKLYKKLTRVKSGSISRQKSRWGGFLGMFGNNVDVVDHYQKKLDKLEDDMRLKQSLLAGEEVPAAFVSFRTRHGAAIATNIQQGIDPTQWLTEAAPEPEDVHWPFFTASFVRRWISNVVVLVAFVALLILYIVPVVLVQGLANLHQLETWFPFLKGILNMKIVSQVITGYLPSLIFQLFLLIVPPIMLLLSSMQGFISHSQIEKSACIKLLIFTVWNSFFANVLSGSALYRVNVFLEPKTIPRVLAAAVPAQASFFVSYVVTSGWTGLSSEILRLVPLLWSFITKLFGKEDDKEFEVPSTPFCQEIPRILFFGLLGITYFFLSPLILPFLLVYYCLGYIIYRNQLLNVYAAKYETGGKFWPIVHSYTIFSLVLMHIIAVGLFGLKELPVASSLTIPLPVLTVLFSIYCQRRFLPNFKSYPTQCLVNKDKADEREQNMSEFYSELVVAYRDPALSASQDSRDISP
notes: OSCA2.3 of Arabidopsis thaliana, UniProt Q8GUH7, full-length, human codon optimized cDNA; 703 residues as printed; C-terminal PreScission Protease site with 4-5 residue linkers before the tags; After PreScission cleavage, remnants of the linker and of the cleavage site stay at the C-terminus; Final model holds residues 3-26, 65-115, 129-225, 302-368, 410-517 and 536-691; also called AtOSCA2.3; …
For the molecule B2, the “stoichiometry N” value in series [3] was 2.
